Assay results as given in paper PMC3675490.
Like-named read-outs stand apart in the source and are kept apart here.

Key:
Hfq65 R16A/R17A [1] = biological target: T1, Hfq65 R16A/R17A (Escherichia coli, UniProt P0A6X3 1-65, R16A;R17A); experiment: NMR titration
Hfq65 [2] = biological target: T2, Hfq65 (Escherichia coli, UniProt P0A6X3 1-65); experiment: X-ray crystallography
Hfq65 R16A/R17A [3] = biological target: T1, Hfq65 R16A/R17A; experiment: NMR titration; remark: listed apart in the source
HfqFL F42S = HfqFL F42S (Escherichia coli, UniProt P0A6X3 1-102, F42S); experiment: fluorescence polarization
HfqFL WT = HfqFL WT (Escherichia coli, UniProt P0A6X3 1-102); experiment: EMSA
Hfq65 [4] = biological target: T2, Hfq65; experiment: X-ray crystallography; remark: listed apart in the source
HfqFL Y25A = HfqFL Y25A (Escherichia coli, UniProt P0A6X3 1-102, Y25A); experiment: fluorescence polarization

## AUUUUUUA (ssRNA) [AU6A (unlabeled)]
Hfq65 R16A/R17A [1]
  binding result: binds
Hfq65 [2]
  binding result: binds

## AACAACAAG (ssRNA) [rpoS-AC (unlabeled)]
Hfq65 R16A/R17A [3]
  binding result: binds

## AACAACAAG (ssRNA) [rpoS-AC]
HfqFL F42S
  binding result: binds

## GGGAACAACAAGAAGUUAAGGCGGGGCAAAAAAUA (ssRNA) [rpoS-AA]
HfqFL WT
  binding result: binds

## AAAAAAA (ssRNA) [A7 (unlabeled)]
Hfq65 [4]
  binding result: binds

## AAAAAAA (ssRNA) [A7]
HfqFL F42S
  binding result: binds

## AUUUUUUA (ssRNA) [AU6A]
HfqFL Y25A
  binding result: binds
